These results are taken from publication PMC3991817.

Common to all, as to test: EMSA
The target of data set [1] is T1, Pax8a (Oncorhynchus mykiss (rainbow trout), UniProt W0S3W1 1-458).
Data set [2] has as its target T2, Pax8b (Oncorhynchus mykiss (rainbow trout), UniProt W0S4A0 1-303).
For a further data set, the target named is T3, Nkx2-1 (Rattus norvegicus (rat), UniProt P23441 1-372).
T3 sequence: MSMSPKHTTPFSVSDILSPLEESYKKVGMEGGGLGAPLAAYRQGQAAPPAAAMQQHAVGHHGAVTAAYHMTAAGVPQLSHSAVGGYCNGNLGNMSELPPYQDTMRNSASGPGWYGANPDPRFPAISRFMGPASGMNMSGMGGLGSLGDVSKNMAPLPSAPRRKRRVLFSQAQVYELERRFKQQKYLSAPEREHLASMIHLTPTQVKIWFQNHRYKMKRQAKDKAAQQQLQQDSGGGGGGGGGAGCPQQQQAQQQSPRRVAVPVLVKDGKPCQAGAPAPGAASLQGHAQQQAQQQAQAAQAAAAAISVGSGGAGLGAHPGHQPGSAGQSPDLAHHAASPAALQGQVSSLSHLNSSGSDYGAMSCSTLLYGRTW

Data set [3] has as its target T1, Pax8a. The source holds these as a separate data set.
In data set [4] the target is T2, Pax8b. The source holds these as a separate data set.

Where two headings read alike, the source gives them in different places.

B1: oligo B (dsDNA)
DNA 1: GAACCAGGGATTCTTCACACTTCATAGAGCAGCT
DNA 2: AGCTGCTCTATGAAGTGTGAAGAATCCCTGGTTC
For B1, the binding result in the data set with Pax8a [1], in the data set with Pax8b [2] and with Nkx2-1 was “binds” throughout.

B2: oligonucleotide CT (dsDNA)
DNA 1: CTGTCTAAGCTTGAGTGGGCATCA
DNA 2: TGATGCCCACTCAAGCTTAGACAG
For the molecule B2, the binding result in the data set with Pax8a [3] and with Pax8b [4] was “binds” in each case.
